Experimental data taken from patent publication US20230406921A1 (MABWELL SHANGHAI BIOSCIENCE, published 2023).
Substitutions are numbered along the chain they refer to. Each block holds one binder with its values, some of them ahead of it.

Tests used:
[1] = molecular target: T1, recombinant antigen of the extracellular region of CD47 (Sino Biological, Cat: 12283-H08H) (human, UniProt Q08722 19-139); test: Fortebio BLI, recombinant CD47
T1 construct: extracellular domain; also called recombinant CD47 extracellular region; CD47 recombinant protein

[2] = molecular target: T2, CD47 on the surface of tumor cells (human, UniProt Q08722 19-323); test: FACS, tumor cells, 2 nM
T2 construct: whole, on cells; Same protein as m4; also called CD47 antigen on the surface of U937 and CCRF cells; SKOV-3
Protocol: (§1) The difference between the binding of the mutant to CD47 on the surface of tumor cells and CD47 on the surface of red blood cells was evaluated.

[3] = molecular target: T3, CD47 on the surface of human red blood cells (human, UniProt Q08722 19-323); test: FACS, RBC, 200 nM
T3 construct: whole, on cells; Same protein as m3, on red blood cells; also called hRBC; RBC
Protocol: as §1

[4] = molecular target: T1, recombinant antigen of the …; test: Fortebio BLI, antibody on AHC sensor, CD47 extracellular region 100 nM;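 note: antibody held on the sensor through anti-human Fc capture, CD47 antigen in solution, association and dissociation phases each lasting 300 s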
Protocol: The affinity between the obtained mutant antibody and the CD47 recombinant protein was determined by Fortebio. The antibody was immobilized on the surface of a sensor with the anti-human Fc capture antibody (AHC Sensor), and reacted with the recombinant antigen of the extracellular region of CD47 (with a working concentration of 100 nM) in the liquid phase. The duration for binding and dissociation was both 300 seconds. The kinetic parameters were determined.

PD-L1 = PD-L1 (human, UniProt Q9NZQ7 19-239, limits assumed); test: Fortebio BLI
[5] = molecular target: T1, recombinant antigen of the …; test: Fortebio BLI
[6] = molecular target: T2, CD47 on the surface of tumor cells; test: FACS, SKOV-3 tumor cells (no PD-L1), antibody 100 nM
Protocol: (§2) In the experiment of analyzing the binding to human red blood cells, the antibody was used at a concentration of 1000 nM; and in the experiment of analyzing the binding to tumor cells, the antibody was used at a concentration of 100 nM.

[7] = molecular target: T3, CD47 on the surface of human red blood …; test: FACS, human red blood cells, antibody 1000 nM
Protocol: as §2

Sequence of PD-L1 (Q9NZQ7 19-239 limits assumed): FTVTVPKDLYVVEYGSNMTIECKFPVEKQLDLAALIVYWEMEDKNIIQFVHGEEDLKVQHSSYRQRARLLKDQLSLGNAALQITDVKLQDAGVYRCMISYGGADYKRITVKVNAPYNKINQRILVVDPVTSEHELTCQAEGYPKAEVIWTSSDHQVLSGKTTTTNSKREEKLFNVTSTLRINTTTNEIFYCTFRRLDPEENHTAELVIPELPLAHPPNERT

B2: hz140-Hm13/hz182-Lm8 (antibody, V domains shown)
VH: EVQLVQSGAEVKKPGASVKVSCKASGYKFTNYVMSWVRQAPGQRLEWMGYINPYNDAIKYNEKFTGRVTITRDTSASTAYMELSSLRSEDTAVYYCAREGDFYANYGRLGFAYWGQGTLVTVSS
VL: DIQMTQSPSSLSASVGDRVTITCRASQDISNYLNWYQQKPGKAPKLLLYYTSRLHSGVPSRFSGSGSGTDYTLTISSLQPEDFATYFCQQGAGRPRTFGGGTKVEIKR
notes: also called h182Lmut8
- Kd [1]: 12.9 nM
- kon [1]: 234000 M⁻¹ s⁻¹
- FACS (MFI) [2]: 39100 MFI
- FACS (MFI) [3]: 40800 MFI

B3: hz140-Hm13/hz182-Lm6 (antibody, V domains shown)
VH: B2 VH
VL: B2 VL with G93T, R96Y
- Kd [1]: 12.5 nM
- kon [1]: 114000 M⁻¹ s⁻¹
- FACS (MFI) [2]: 15900 MFI
- FACS (MFI) [3]: 695 MFI

B5: hz140-Hm13/hz182-Lm11 (antibody, V domains shown)
VH: B2 VH
VL: B2 VL with F83I, A92D, G93T, R94F, R96Y
- Kd [1]: 53.1 nM
- kon [1]: 103000 M⁻¹ s⁻¹
- FACS (MFI) [2]: 20100 MFI
- FACS (MFI) [3]: 321 MFI

B7: hz140-Hm13/hz182-Lm10 (antibody, V domains shown)
VH: B2 VH
VL: B2 VL with F83I, R94F, R96Y
- Kd [1]: 5.14 nM
- kon [1]: 176000 M⁻¹ s⁻¹
- FACS (MFI) [2]: 19000 MFI
- FACS (MFI) [3]: 326 MFI

B9: anti-human CD47/PD-L1 bispecific antibody 2MW1531-m7 (bispecific antibody, human IgG4 S228P, kappa)
heavy 1: EVQLVQSGAEVKKPGASVKVSCKASGYKFTNYVMSWVRQAPGQRLEWMGYINPYNDAIKYNEKFTGRVTITRDTSASTAYMELSSLRSEDTAVYYCAREGDFYANYGRLGFAYWGQGTLVTVSSASTKGPSVFPLAPCSRSTSESTAALGCLVKDYFPEPVTVSWNSGALTSGVHTFPAVLQSSGLYSLSSVVTVPSSSLGTQTYTCNVDHKPSNTKVDKRVESKYGPPCPPCPAPEFLGGPSVFLFPPKPKDTLMISRTPEVTCVVVDVSQEDPEVQFNWYVDGVEVHNAKTKPREEQYNSTYRVVSVLTVLHQDWLNGKEYKCKVSNKGLPSSIEKTISKAKGQPREPQVYTLPPSQKEMTKNQVSLTCLVKGFYPSDIAVEWESNGQPENNYKTTPPVLDSDGSFFLYSKLTVDKSRWQEGNVFSCSVMHEALHNRYTQKSLSLSLGK
heavy 2: EVQLVQSGAEVKKPGATVKISCKVSGFNIKDIYMHWVQQAPGKGLEWMGRIDPANANTKYDPKFQDRVTITADTSTNTAYMELSSLRSEDTAVYYCASGQLGPLGFDYWGQGTTVTVSSASTKGPSVFPLAPCSRSTSESTAALGCLVKDYFPEPVTVSWNSGALTSGVHTFPAVLQSSGLYSLSSVVTVPSSSLGTQTYTCNVDHKPSNTKVDKRVESKYGPPCPPCPAPEFLGGPSVFLFPPKPKDTLMISRTPEVTCVVVDVSQEDPEVQFNWYVDGVEVHNAKTKPREEQYNSTYRVVSVLTVLHQDWLNGKEYKCKVSNKGLPSSIEKTISKAKGQPREPQVYTLPPSQEEMTKNQVSLTCLVKGFYPSDIAVEWESNGQPENNYKTTPPVLDSDGSFFLYSKLTVDKSRWQEGNVFSCSVMHEALHNHYTQESLSLSLGK
VL: DIQMTQSPSSLSASVGDRVTITCRASQDISNYLNWYQQKPGKAPKLLLYYTSRLHSGVPSRFSGSGSGTDYTLTISSLQPEDFATYFCQQGAGFPYTFGGGTKVEIKRTVAAPSVFIFPPSDEQLKSGTASVVCLLNNFYPREAKVQWKVDNALQSGNSQESVTEQDSKDSTYSLSSTLTLSKADYEKHKVYACEVTHQGLSSPVTKSFNRGEC
notes: Knobs-into-holes with a common light chain
- Kd (PD-L1): 0.917 nM
- koff (PD-L1): 0.00021 s⁻¹
- kon (PD-L1): 230000 M⁻¹ s⁻¹
- Kd [5]: 62.1 nM
- koff [5]: 0.00814 s⁻¹
- kon [5]: 131000 M⁻¹ s⁻¹
- Binding to tumor cells (MFI) [6]: 28200 MFI

B11: anti-human CD47/PD-L1 bispecific antibody 2MW1531-m1 (bispecific antibody)
heavy 1: B9 heavy 1
heavy 2: B9 heavy 2
VL: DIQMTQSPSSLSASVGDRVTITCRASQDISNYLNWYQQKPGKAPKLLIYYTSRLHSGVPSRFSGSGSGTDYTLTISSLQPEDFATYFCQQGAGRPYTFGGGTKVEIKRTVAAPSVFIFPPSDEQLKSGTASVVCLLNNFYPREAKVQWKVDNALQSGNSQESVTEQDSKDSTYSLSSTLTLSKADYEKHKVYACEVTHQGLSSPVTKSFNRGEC
notes: as for B9
- Binding to human red blood cells (MFI) [7]: 888 MFI
- Kd (PD-L1): 1.59 nM
- koff (PD-L1): 0.000387 s⁻¹
- kon (PD-L1): 243000 M⁻¹ s⁻¹
- Kd [5]: 22.5 nM
- koff [5]: 0.00213 s⁻¹
- kon [5]: 94600 M⁻¹ s⁻¹
- Binding to tumor cells (MFI) [6]: 33300 MFI

B14: anti-human CD47/PD-L1 bispecific antibody 2MW1531-m6 (bispecific antibody)
heavy 1: B9 heavy 1
heavy 2: B9 heavy 2
VL: B9 VL with G93T, F94R
notes: as for B9
- Binding to human red blood cells (MFI) [7]: 912 MFI
- Kd (PD-L1): 1.73 nM
- koff (PD-L1): 0.000496 s⁻¹
- kon (PD-L1): 287000 M⁻¹ s⁻¹
- Kd [5]: 84.5 nM
- koff [5]: 0.00879 s⁻¹
- kon [5]: 104000 M⁻¹ s⁻¹
- Binding to tumor cells (MFI) [6]: 24700 MFI

Other lines, results leading:

- Kd [1]: 667 nM
- kon [1]: 79900 M⁻¹ s⁻¹
- FACS (MFI) [2]: 39900 MFI
- FACS (MFI) [3]: 3310 MFI
B1: hz140-Hm13/hz182-Lm5 (antibody, V domains shown)
VH: B2 VH
VL: B2 VL with A92D, R96Y

- Kd [1]: 38.9 nM
- kon [1]: 132000 M⁻¹ s⁻¹
- FACS (MFI) [2]: 16400 MFI
- FACS (MFI) [3]: 1750 MFI
B4: hz140-Hm13/hz182-Lm9 (antibody, V domains shown)
VH: B2 VH
VL: B2 VL with A92D, G93T, R94F, R96Y

- Kd [1]: 5.97 nM
- kon [1]: 125000 M⁻¹ s⁻¹
- Kd [4]: 6.2 nM
- koff [4]: 0.00163 s⁻¹
- kon [4]: 263000 M⁻¹ s⁻¹
- FACS (MFI) [2]: 25800 MFI
- FACS (MFI) [3]: 2060 MFI
B6: hz140-Hm13/hz182-L (antibody, V domains shown)
VH: B2 VH
VL: DIQMTQSPSSLSASVGDRVTITCRASQDISNYLNWYQQKPGKAPKLLLYYTSRLHSGVPSRFSGSGSGTDYTLTISSLQPEDFATYFCQQGAGRPYTFGGGTKVEIK

- Kd (PD-L1): 0.474 nM
- koff (PD-L1): 0.000147 s⁻¹
- kon (PD-L1): 310000 M⁻¹ s⁻¹
- Kd [5]: 8.56 nM
- koff [5]: 0.00131 s⁻¹
- kon [5]: 153000 M⁻¹ s⁻¹
- Binding to tumor cells (MFI) [6]: 35400 MFI
B8: anti-human CD47/PD-L1 bispecific antibody 2MW1531-p (bispecific antibody)
heavy 1: B9 heavy 1
heavy 2: B9 heavy 2
VL: B6 VL
notes: Knobs-into-holes: heavy chain A hz140-H-A (anti-CD47), heavy chain B hz182-H-B (anti-PD-L1), common light chain

- Binding to human red blood cells (MFI) [7]: 807 MFI
- Kd (PD-L1): 1.02 nM
- koff (PD-L1): 0.000357 s⁻¹
- kon (PD-L1): 347000 M⁻¹ s⁻¹
- Kd [5]: 10.8 nM
- koff [5]: 0.00101 s⁻¹
- kon [5]: 93600 M⁻¹ s⁻¹
- Binding to tumor cells (MFI) [6]: 30900 MFI
B10: anti-human CD47/PD-L1 bispecific antibody 2MW1531-m5 (bispecific antibody)
heavy 1: B9 heavy 1
heavy 2: B9 heavy 2
VL: B9 VL with A92D, F94R
notes: as for B9

- Binding to human red blood cells (MFI) [7]: 903 MFI
- Kd (PD-L1): 3.78 nM
- koff (PD-L1): 0.000707 s⁻¹
- kon (PD-L1): 187000 M⁻¹ s⁻¹
- Kd [5]: 26.5 nM
- koff [5]: 0.00321 s⁻¹
- kon [5]: 121000 M⁻¹ s⁻¹
- Binding to tumor cells (MFI) [6]: 31100 MFI
B12: anti-human CD47/PD-L1 bispecific antibody 2MW1531-m4 (bispecific antibody)
heavy 1: B9 heavy 1
heavy 2: B9 heavy 2
VL: B9 VL with S30T, F94R
notes: as for B9

- Binding to human red blood cells (MFI) [7]: 799 MFI
- Kd (PD-L1): 3.26 nM
- koff (PD-L1): 0.000696 s⁻¹
- kon (PD-L1): 213000 M⁻¹ s⁻¹
- Kd [5]: 81 nM
- koff [5]: 0.00678 s⁻¹
- kon [5]: 83700 M⁻¹ s⁻¹
- Binding to tumor cells (MFI) [6]: 29900 MFI
B13: anti-human CD47/PD-L1 bispecific antibody 2MW1531-m2 (bispecific antibody)
heavy 1: B9 heavy 1
heavy 2: B9 heavy 2
VL: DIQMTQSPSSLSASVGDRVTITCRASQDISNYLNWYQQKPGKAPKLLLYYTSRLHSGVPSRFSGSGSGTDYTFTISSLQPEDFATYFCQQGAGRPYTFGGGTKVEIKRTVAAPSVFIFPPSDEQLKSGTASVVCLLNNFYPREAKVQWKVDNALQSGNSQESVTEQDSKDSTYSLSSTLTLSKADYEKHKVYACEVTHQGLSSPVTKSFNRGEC
notes: as for B9
